Biological target: the molecule itself
Assay: negative-stain TEM + turbidity + circular dichroism + rheology; Z23 alone (no MWCNTs) in PBS, assembly triggered by adding 10x PBS to the aqueous peptide solution; room temperature (rheology 1 wt% in PBS at 25 °C); turbidity at 313 nm

B1: cationic amphiphilic self-assembling peptide (SAP) Z23 (peptide)
peptide: Ac-KFKFQFKFK-NH2
notes: Designed self-assembling peptide; forms nanofibers and a hydrogel in PBS; source: synthetic peptide; bought: Shanghai Top-peptide Biotechnology Co. Ltd. (purity > 95%)
- binding result: binds

— publication PMC10934782, “Electrochemical Sensors Based on Self-Assembling Peptide/Carbon Nanotube Nanocomposites for Sensitive Detection of Bisphenol A” (Sensors (Basel, Switzerland), 2024)
